Test results from patent US20170021001A1.
Values belong to the binder of their own block, whether it stands above or below them.

Target: TCRs of Du51-specific CD8^+CD45RC^low Tregs (CD8^+CD40Ig Tregs) (rat)
Assay: cell-based or functional assay

CD25 expression at the cell surface of CD8^+CD40Ig Tregs, fold vs. no peptide (6 days coculture with matured syngeneic pDCs) (fold vs. no peptide): 2.07
B1: peptide Du51 (…) (peptide)
peptide: NREEYARFDSDVGEYR

CD25 upregulation on CD8^+CD40Ig Tregs, fold vs. no peptide (fold vs. no peptide): 2.04
B2: peptide 51-18 (…) (peptide)
peptide: REEYARFDSDVGEYR

CD25 expression at the cell surface of CD8^+CD40Ig Tregs, fold vs. no peptide (6 days coculture with matured syngeneic pDCs) (fold vs. no peptide): 1.67
B3: peptide Bu31 (…) (peptide)
peptide: YLRYDSDVGEYRAVTE
